Patent publication US20240228592A1 (BIO THERA SOLUTIONS, published 2024)

Molecular target: T1, spike-RBD-mFC (sino biologicals) (SARS-COV-2, UniProt P0DTC2 319-541)
T1 construct: domain: RBD; also called spike protein in SARS-COV-2
Experiment: ELISA, spike-RBD-mFC coated, anti-human kappa light chain-peroxidase detection

B1: antibody 9 (antibody, V domains shown)
VH: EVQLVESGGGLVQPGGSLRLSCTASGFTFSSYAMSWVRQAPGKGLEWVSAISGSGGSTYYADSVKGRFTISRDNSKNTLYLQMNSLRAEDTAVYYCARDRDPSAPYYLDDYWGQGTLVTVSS
VL: DIQMTQSPSSLSASVGDRVTITCRASQGISSYLAWYQQKPGKAPKLLIYAASSLQSGVPSRFSGSGSGTDFTLTISSLQPEDFATYYCQQHYTTPPTFGQGTKVEIKR
Which EC50 does the source give for B1 here?
Its EC50 is 2.76 nM.
